# According to patent US20150306241:
# T1: PEG2000-peptide-PTX
# T1 chain: GPLGIAGQ
# B1: Human active MMP2 protein (MW 66,000 Da) (protein)
# chain: YNFFPRKPKWDKNQITYRIIGYTPDLDPETVDDAFARAFQVWSDVTPLRFSRIHDGEADIMINFGRWEHGDGYPFDGKDGLLAHAFAPGTGVGGDSHFDDDELWTLGEGQVVRVKYGNADGEYCKFPFLFNGKEYNSCTDTGRSDGFLWCSTTYNFEKDGKYGFCPHEALFTMGGNAEGQPCKFPFRFQGTSYDSCTTEGRTDGYRWCGTTEDYDRDKKYGFCPETAMSTVGGNSEGAPCVFPFTFLGNKYESCTSAGRSDGKMWCATTANYDDDRKWGFCPDQGYSLFLVAAHEFGHAMGLEHSQDPGALMAPIYTYTKNFRLSQDDIKGIQELYGASPDIDLGTGPTPTLGPVTPEICKQDIVFDGIAQIRGEIFFFKDRFIWRTVTPRDKPMGPLLVATFWPELPEKIDAVYEAPQEEKAVFFAGNEYWIYSASTLERGYPKPLTSLGLPPDVQRVDAAFNWSKNKKTYIFAGDKFWRYNEVKKKMDPGFPKLIADAWNAIPDNLDAVVDLQGGGHSYFFKGAYYLKLENQSLKSVKFGSIKSDWLGC
# Biological target: T1, PEG2000-peptide-PTX
protein,measurement,value
B1,enzymatic digestion followed by TLC (5 ng/µL human MMP2),the MMP2 completely cleaved the peptide linker resulting in two digestion fragments (IAGQ-PTX and PEG-GPLG)
